Laboratory results as given in paper PMC5748978.

Molecular target: GST-Abp1^SH3 (UniProt Q62418)
Assay: pull-down

**Q.** How did the increase of complex formation with 2 µM Ca2+ over Ca2+-free control turn out when “endogenous Cobl-like from rat brain extracts (natural protein)” was run?
**A.** Its increase of complex formation with 2 µM Ca2+ over Ca2+-free control is 46%.
